From doi:10.1101/2025.11.10.687665

Molecular target: streptavidin 2 (Sav2) (Streptomyces avidinii)

“streptavidin 2 (Sav2) (domain or fragment)” gave a stoichiometry N of 4.
